Laboratory results reported in patent US20230002507A1 (Novartis, published 2023).

Assays:
Human FXI zymogen = Human FXI zymogen (human, UniProt P03951 19-625); assay: cell-based or functional assay
Human FXI activated = Human FXI activated (human, UniProt P03951 19-387; P03951 388-625); assay: cell-based or functional assay
Human FXI activated, sequence (P03951 19-387 C226S limits assumed, chain 1 of 2): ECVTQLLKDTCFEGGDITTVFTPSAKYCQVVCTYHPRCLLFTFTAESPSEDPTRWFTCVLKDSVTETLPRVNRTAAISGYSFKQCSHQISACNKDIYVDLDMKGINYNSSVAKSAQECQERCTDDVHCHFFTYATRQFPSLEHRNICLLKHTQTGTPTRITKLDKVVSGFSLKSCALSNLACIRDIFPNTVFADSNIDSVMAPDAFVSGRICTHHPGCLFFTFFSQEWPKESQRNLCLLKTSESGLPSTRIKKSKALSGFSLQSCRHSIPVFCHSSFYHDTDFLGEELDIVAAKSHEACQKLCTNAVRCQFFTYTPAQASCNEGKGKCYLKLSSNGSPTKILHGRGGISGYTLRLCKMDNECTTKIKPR
Human FXI activated, sequence (P03951 388-625 limits assumed, chain 2 of 2): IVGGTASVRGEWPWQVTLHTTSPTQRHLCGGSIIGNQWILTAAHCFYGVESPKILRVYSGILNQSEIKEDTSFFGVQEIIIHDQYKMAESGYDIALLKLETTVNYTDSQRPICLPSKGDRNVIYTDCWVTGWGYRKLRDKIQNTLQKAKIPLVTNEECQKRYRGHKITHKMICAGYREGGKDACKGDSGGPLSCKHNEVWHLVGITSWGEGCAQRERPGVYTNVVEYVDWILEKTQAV

Human FXI zymogen, sequence (P03951 19-625 C226S limits assumed): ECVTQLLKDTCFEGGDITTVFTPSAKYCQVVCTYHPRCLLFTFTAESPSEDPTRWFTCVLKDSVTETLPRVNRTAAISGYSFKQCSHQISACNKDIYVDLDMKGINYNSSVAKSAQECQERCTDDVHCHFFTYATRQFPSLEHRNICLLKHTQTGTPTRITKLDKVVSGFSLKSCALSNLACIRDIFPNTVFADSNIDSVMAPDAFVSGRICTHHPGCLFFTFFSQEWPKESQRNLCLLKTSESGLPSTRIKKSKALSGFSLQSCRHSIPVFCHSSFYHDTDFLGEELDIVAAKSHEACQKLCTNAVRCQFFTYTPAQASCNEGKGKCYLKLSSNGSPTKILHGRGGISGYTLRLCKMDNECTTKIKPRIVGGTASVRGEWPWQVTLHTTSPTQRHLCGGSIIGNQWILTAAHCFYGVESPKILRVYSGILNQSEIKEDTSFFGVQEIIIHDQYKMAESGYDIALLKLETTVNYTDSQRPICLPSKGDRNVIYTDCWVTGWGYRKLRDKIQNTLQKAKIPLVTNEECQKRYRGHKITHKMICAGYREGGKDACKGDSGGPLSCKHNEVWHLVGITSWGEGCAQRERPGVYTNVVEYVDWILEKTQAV

- IC50, thrombin generation assay (TGA) in pooled human plasma (Human FXI zymogen): 24 nM
- IC50, inhibition of FXIa enzymatic activity (cleavage of the fluorescent peptide substrate BS-2494) (Human FXI activated): ~0.16 nM
- IC50, inhibition of the enzymatic activity of full length human FXIa (cleavage of a fluorescently labelled peptide) (Human FXI activated): 0.16 nM
B1: NOV1401-IgG (antibody, V domains shown)
VH: QVQLLESGGGLVQPGGSLRLSCAASGFTFSTAAMSWVRQAPGKGLEWVSGISGSGSSTYYADSVKGRFTISRDNSKNTLYLQMNSLRAEDTAVYYCARELSYLYSGYYFDYWGQGTLVTVSS
VL: QSVLTQPPSASGTPGQRVTISCSGSSSNIGSNDVSWYQQLPGTAPKLLIYKNYNRPSGVPDRFSGSKSGTSASLAISGLQSEDEADYYCSAWDQRQFDVVFGGGTKLTVLG
